Broadly, the Km is the substrate concentration at which the rate is half of its maximum. The kcat is the number of substrate molecules converted per active site and unit of time at saturation. In general, kcat/Km refers to the second-order rate constant that governs catalysis at low substrate concentration.

The record followed here is paper PMC3792076, “Elucidation of Substrate Specificity in Aspergillus nidulans UDP-Galactose-4-Epimerase” (PLoS ONE, 2013).

Substrate in this data set: O=c1ccn([C@@H]2O[C@H](COP(=O)(O)OP(=O)(O)O[C@H]3O[C@H](CO)[C@H](O)[C@H](O)[C@H]3O)[C@@H](O)[C@H]2O)c(=O)[nH]1
Kind of data set: purified protein. To be noted: 2 mM NAD+, 100 mM Tris-HCl pH 8.5, 25°C. The class given is biochemical, Aspergillus nidulans.

B1: AnGALE (Aspergillus nidulans FGSC A4) (protein)
chain: MPSGSVLVTGGTGYIGSFTTLALLEAGYKVVVADNLYNSSAEALNRIELISGKKAEFAQLDVTDEAAFDKVFEAHPDIDSVIHFAALKAVGESGEKPLDYYHVNVYGTICLLRSMVRHNVTNIVFSSSATVYGDATRFPDMIPIPEHCPLGPTNPYGNTKFAIELAITDVINAQRNNAKKAGNETEAAKWNGALLRYFNPAGAHPSGIMGEDPQGVPYNLLPLLAQVATGKREKLLVFGDDYASHDGTAIRDYIHILDLADGHLKALNYLRANNPGVRAWNLGTGRGSTVYEMIRAFSKAVGRDLPYEVAPRRAGDVLNLTSNPTRANTELGWKAQRTLEQACEDLWLWTKNNPQGYRQQPPAELLEQLKK
notes: N-terminal His-TEV tag (p-HIS-TEV-GALE), not cleaved for crystallization; E. coli BL21-Gold; homodimer
For B1, the Km was found to be 110 ± 10 µM, the kcat is 12.8 ± 0.6 s⁻¹ and the kcat/Km is 116000 ± 8100 M⁻¹ s⁻¹.

B2: AnGALE (Aspergillus nidulans FGSC A4; L320Y) (protein)
chain: MPSGSVLVTGGTGYIGSFTTLALLEAGYKVVVADNLYNSSAEALNRIELISGKKAEFAQLDVTDEAAFDKVFEAHPDIDSVIHFAALKAVGESGEKPLDYYHVNVYGTICLLRSMVRHNVTNIVFSSSATVYGDATRFPDMIPIPEHCPLGPTNPYGNTKFAIELAITDVINAQRNNAKKAGNETEAAKWNGALLRYFNPAGAHPSGIMGEDPQGVPYNLLPLLAQVATGKREKLLVFGDDYASHDGTAIRDYIHILDLADGHLKALNYLRANNPGVRAWNLGTGRGSTVYEMIRAFSKAVGRDLPYEVAPRRAGDVLNYTSNPTRANTELGWKAQRTLEQACEDLWLWTKNNPQGYRQQPPAELLEQLKK
notes: as for B1
As to B2, the Km turned out to be 60 ± 10 µM, the kcat was determined as 1.5 ± 0.1 s⁻¹ and the kcat/Km came out at 26800 ± 1900 M⁻¹ s⁻¹.
